This note sets out measurements from patent publication US20210340205A1 (Novartis, published 2021).

For this test, the target named is T1, Human cRET(ECD)-Fc (human).
T1 construct: also called RET-Fc
The experiment in a line: MSD plate assay, cRET(ECD)-Fc coated; biotinylated anti-6xHis mAb and streptavidin sulfo-tag. As to the method: Methods: To generate soluble GDF15/GFRAL complexes in vitro, recombinant GFRAL(D2D3)-App, GFRAL(ECD)-His, and GFRAL(ECD)-Fc proteins purified in Example 1 were freshly mixed with equimolar amounts of biotinylated His-GDF15 (1250 pM) in DPBS supplemented with 50 μM CaCl₂. The mixtures were incubated at room temperature for 60 min to allow complex formation. The complex made was stable at 4° C. and was used directly for in vitro binding assays against cRET(ECD)-Fc coated on plastic plates without further purification. Three different GDF15/GFRAL ECD complexes were prepared, including His-GDF15(biotin)/GFRAL(D2D3)-App, His-GDF15(biotin)/GFRAL (ECD)-His, and His-GDF15(biotin)/GFRAL (ECD)-Fc in the same manner. […] His-GDF15(L294R) was mixed with GFRAL(ECD)-His to generate a negative control for GDF15/GFRAL/cRET interaction. […]
Methods: Mixtures of purified biotinylated His-GDF15 and GFRAL(ECD)-His or His-GDF15(L294R) and GFRAL(ECD)-His were prepared as described in Example 3. […] Binding of proteins to plates coated with cRET(ECD)-Fc was detected using biotinylated mouse anti-6×His tag monoclonal antibody followed by streptavidin sulfo-tag, and otherwise by methods described in Example 3.

T1 sequence (chain, as listed by the source): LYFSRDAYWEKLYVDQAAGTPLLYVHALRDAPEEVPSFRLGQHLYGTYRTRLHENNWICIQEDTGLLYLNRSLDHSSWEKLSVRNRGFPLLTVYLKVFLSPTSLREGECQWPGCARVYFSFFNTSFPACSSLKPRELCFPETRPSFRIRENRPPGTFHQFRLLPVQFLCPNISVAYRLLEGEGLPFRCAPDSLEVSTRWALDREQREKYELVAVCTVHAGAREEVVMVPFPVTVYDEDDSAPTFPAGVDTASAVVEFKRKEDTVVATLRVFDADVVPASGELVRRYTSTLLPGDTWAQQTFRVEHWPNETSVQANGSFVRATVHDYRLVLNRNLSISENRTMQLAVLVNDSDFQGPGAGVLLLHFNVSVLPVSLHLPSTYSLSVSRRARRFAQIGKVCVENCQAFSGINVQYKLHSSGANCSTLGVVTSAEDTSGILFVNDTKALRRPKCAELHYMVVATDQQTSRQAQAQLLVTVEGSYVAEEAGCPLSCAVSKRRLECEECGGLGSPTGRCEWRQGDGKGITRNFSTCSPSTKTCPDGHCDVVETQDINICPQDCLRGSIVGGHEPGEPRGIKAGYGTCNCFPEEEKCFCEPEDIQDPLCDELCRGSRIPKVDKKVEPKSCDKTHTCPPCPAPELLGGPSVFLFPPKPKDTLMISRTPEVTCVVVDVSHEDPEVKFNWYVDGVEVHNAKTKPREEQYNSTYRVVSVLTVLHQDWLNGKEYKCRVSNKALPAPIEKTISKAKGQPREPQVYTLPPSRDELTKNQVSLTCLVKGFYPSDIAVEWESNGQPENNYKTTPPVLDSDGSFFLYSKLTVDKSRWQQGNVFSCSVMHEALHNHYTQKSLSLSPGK

B1: His-GDF15(L294R)/GFRAL(ECD)-His mixture (other)
chain 1: HHHHHHGSGGARNGDHCPLGPGRCCRLHTVRASLEDLGWADWVLSPREVQVTMCIGACPSQFRAANMHAQIKTSLHRLKPDTVPAPCCVPASYNPMVLIQKTDTGVSRQTYDDLLAKDCHCI
chain 2: QTNNCTYLREQCLRDANGCKHAWRVMEDACNDSDPGDPCKMRNSSYCNLSIQYLVESNFQFKECLCTDDFYCTVNKLLGKKCINKSDNVKEDKFKWNLTTRSHHGFKGMWSCLEVAEACVGDVVCNAQLASYLKACSANGNPCDLKQCQAAIRFFYQNIPFNIAQMLAFCDCAQSDIPCQQSKEALHSKTCAVNMVPPPTCLSVIRSCQNDELCRRHYRTFQSKCWQRVTRKCHEDENCISTLSKQDLTCSGSDDCKAAYIDILGTVLQVQCTCRTITQSEESLCKIFQHMLHRKSCFNYPTLSNVKGMALYTRKHANKITLTGFHSPFNGEGSHHHHHH
Regarding B1, the binding result is given as “no binding (tested: 0-5 log 10 pM)”.

B2: His-GDF15(L294R) (ligand)
chain: B1 chain 1
notes: Non-functional mutant, prepared in the same way as wild-type His-GDF15 (E. coli, see US 2017/204149); also called His-GDF15(L294R) mutant
As for B2, the binding result was “no binding (tested: 0-5 log 10 pM)”.
